Assay results taken from PMC10397247.
One block for each binder: values may come before it.

Experiments:
4H3855-bN = target: T1, 4H3855-bN; test: two-hybrid library CCNG1;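 note: natural log of median RNA to DNA barcode read ratio; higher means stronger binding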
T1 chain: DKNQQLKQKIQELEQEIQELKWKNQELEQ

4H4001-bN = target: T2, 4H4001-bN; test: two-hybrid library CCNG1;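 note: natural log of median RNA to DNA barcode read ratio; higher means stronger binding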
T2 chain: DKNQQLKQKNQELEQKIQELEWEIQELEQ

4H454-bN = target: T3, 4H454-bN; test: two-hybrid library CCNG1;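 note: natural log of median RNA to DNA barcode read ratio; higher means stronger binding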
T3 chain: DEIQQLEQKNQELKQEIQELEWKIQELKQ

4H568-bN = target: T4, 4H568-bN; test: two-hybrid library CCNG1;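 note: natural log of median RNA to DNA barcode read ratio; higher means stronger binding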
T4 chain: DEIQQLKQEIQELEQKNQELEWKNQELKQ

4H607-bN = target: T5, 4H607-bN; test: two-hybrid library CCNG1;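 note: natural log of median RNA to DNA barcode read ratio; higher means stronger binding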
T5 chain: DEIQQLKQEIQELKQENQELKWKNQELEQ

4H687-bN = target: T6, 4H687-bN; test: two-hybrid library CCNG1;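 note: natural log of median RNA to DNA barcode read ratio; higher means stronger binding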
T6 chain: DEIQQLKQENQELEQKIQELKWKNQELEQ

4H717-bN = target: T7, 4H717-bN; test: two-hybrid library CCNG1
T7 chain: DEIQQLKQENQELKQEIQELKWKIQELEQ

4H72-bN = target: T8, 4H72-bN; test: two-hybrid library CCNG1
T8 chain: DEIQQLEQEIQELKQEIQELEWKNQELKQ

4H754-bN = target: T9, 4H754-bN; test: two-hybrid library CCNG1
T9 chain: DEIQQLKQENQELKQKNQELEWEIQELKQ

4H797-bN = target: T10, 4H797-bN; test: two-hybrid library CCNG1
T10 chain: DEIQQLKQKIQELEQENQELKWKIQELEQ

4H883-bN = target: T11, 4H883-bN; test: two-hybrid library CCNG1
T11 chain: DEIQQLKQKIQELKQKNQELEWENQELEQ

4H908-bN = target: T12, 4H908-bN; test: two-hybrid library CCNG1
T12 chain: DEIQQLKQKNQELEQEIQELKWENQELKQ

4H918-bN = target: T13, 4H918-bN; test: two-hybrid library CCNG1
T13 chain: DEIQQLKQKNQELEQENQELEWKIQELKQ

4H953-bN = target: T14, 4H953-bN; test: two-hybrid library CCNG1
T14 chain: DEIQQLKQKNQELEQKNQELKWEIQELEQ

4H967-bN = target: T15, 4H967-bN; test: two-hybrid library CCNG1
T15 chain: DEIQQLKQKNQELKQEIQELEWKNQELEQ

APC4100-AA = target: T16, APC4100-AA; test: two-hybrid library CCmax
T16 chain: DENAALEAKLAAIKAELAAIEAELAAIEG

APC4336-AA = target: T17, APC4336-AA; test: two-hybrid library CCmax; settings: mean of both orientations
T17 chain: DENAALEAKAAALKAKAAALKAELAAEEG

APC5009-AA = target: T18, APC5009-AA; test: two-hybrid library CCmax; settings: mean of both orientations
T18 chain: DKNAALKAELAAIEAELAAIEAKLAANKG

APC542-AA = target: T19, APC542-AA; test: two-hybrid library CCmax; settings: mean of both orientations
T19 chain: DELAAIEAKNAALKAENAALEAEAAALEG

APC5531-AA = target: T20, APC5531-AA; test: two-hybrid library CCmax; settings: mean of both orientations
T20 chain: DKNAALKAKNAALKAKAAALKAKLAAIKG

APC6088-AA = target: T21, APC6088-AA; test: two-hybrid library CCmax; settings: mean of both orientations
T21 chain: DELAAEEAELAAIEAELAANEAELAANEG

APC7524-AA = target: T22, APC7524-AA; test: two-hybrid library CCmax; settings: mean of both orientations
T22 chain: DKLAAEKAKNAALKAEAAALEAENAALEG

APC8401-AA = target: T23, APC8401-AA; test: two-hybrid library CCmax; settings: mean of both orientations
T23 chain: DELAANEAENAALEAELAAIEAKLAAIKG

APC8516-AA = target: T24, APC8516-AA; test: two-hybrid library CCmax; settings: mean of both orientations
T24 chain: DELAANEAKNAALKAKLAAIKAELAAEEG

APC9141-AA = target: T25, APC9141-AA; test: two-hybrid library CCmax; settings: mean of both orientations
T25 chain: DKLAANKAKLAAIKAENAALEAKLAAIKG

APC9182-AA = target: T26, APC9182-AA; test: two-hybrid library CCmax; settings: mean of both orientations
T26 chain: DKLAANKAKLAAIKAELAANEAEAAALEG

APC9291-AA = target: T27, APC9291-AA; test: two-hybrid library CCmax; settings: mean of both orientations
T27 chain: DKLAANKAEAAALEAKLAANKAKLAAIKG

APC9806-AA = target: T28, APC9806-AA; test: two-hybrid library CCmax; settings: mean of both orientations
T28 chain: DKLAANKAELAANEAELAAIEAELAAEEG

P8 = target: T29, P8; test: two-hybrid library CC1
T29 chain: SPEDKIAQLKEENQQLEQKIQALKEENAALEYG

P8mS = target: T30, P8mS; test: two-hybrid library CC1; settings: mean of both orientations
T30 chain: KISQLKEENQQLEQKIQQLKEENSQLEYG

P9 = target: T31, P9; test: two-hybrid library CC1; settings: mean of both orientations
T31 chain: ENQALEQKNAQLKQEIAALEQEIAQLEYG

4H2907-AA = target: T32, 4H2907-AA; test: two-hybrid library CCmax
T32 chain: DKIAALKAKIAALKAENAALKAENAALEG

4H3056-AA = target: T33, 4H3056-AA; test: two-hybrid library CCmax; settings: mean of both orientations
T33 chain: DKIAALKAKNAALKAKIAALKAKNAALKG

4H3133-AA = target: T34, 4H3133-AA; test: two-hybrid library CCmax; settings: mean of both orientations
T34 chain: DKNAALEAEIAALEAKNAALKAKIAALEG

4H3162-AA = target: T35, 4H3162-AA; test: two-hybrid library CCmax; settings: mean of both orientations
T35 chain: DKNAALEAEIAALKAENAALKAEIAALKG

4H32-AA = target: T36, 4H32-AA; test: two-hybrid library CCmax; settings: mean of both orientations
T36 chain: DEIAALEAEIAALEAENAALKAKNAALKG

4H3378-AA = target: T37, 4H3378-AA; test: two-hybrid library CCmax; settings: mean of both orientations
T37 chain: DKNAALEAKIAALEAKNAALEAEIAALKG

4H340-AA = target: T38, 4H340-AA; test: two-hybrid library CCmax; settings: mean of both orientations
T38 chain: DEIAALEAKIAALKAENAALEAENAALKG

4H3413-AA = target: T39, 4H3413-AA; test: two-hybrid library CCmax; settings: mean of both orientations
T39 chain: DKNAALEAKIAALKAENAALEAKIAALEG

4H3588-AA = target: T40, 4H3588-AA; test: two-hybrid library CCmax; settings: mean of both orientations
T40 chain: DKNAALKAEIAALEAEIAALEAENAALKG

4H3606-AA = target: T41, 4H3606-AA; test: two-hybrid library CCmax; settings: mean of both orientations
T41 chain: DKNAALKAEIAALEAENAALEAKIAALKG

4H3631-AA = target: T42, 4H3631-AA; test: two-hybrid library CCmax; settings: mean of both orientations
T42 chain: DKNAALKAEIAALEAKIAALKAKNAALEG

4H3697-AA = target: T43, 4H3697-AA; test: two-hybrid library CCmax; settings: mean of both orientations
T43 chain: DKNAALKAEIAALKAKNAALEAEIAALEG

4H3718-AA = target: T44, 4H3718-AA; test: two-hybrid library CCmax; settings: mean of both orientations
T44 chain: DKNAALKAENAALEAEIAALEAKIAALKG

4H384-AA = target: T45, 4H384-AA; test: two-hybrid library CCmax; settings: mean of both orientations
T45 chain: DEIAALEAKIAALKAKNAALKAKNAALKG

4H3865-AA = target: T46, 4H3865-AA; test: two-hybrid library CCmax; settings: mean of both orientations
T46 chain: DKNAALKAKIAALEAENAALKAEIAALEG

4H697-AA = target: T47, 4H697-AA; test: two-hybrid library CCmax; settings: mean of both orientations
T47 chain: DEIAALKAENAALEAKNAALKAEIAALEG

4H982-AA = target: T48, 4H982-AA; test: two-hybrid library CCmax; settings: mean of both orientations
T48 chain: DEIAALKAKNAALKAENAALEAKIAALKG

4H3381-bH = target: T49, 4H3381-bH; test: two-hybrid library CCNG1
T49 chain: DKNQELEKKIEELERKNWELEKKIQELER

4H349-bH = target: T50, 4H349-bH; test: two-hybrid library CCNG1
T50 chain: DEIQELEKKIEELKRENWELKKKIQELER

4H56-bH = target: T51, 4H56-bH; test: two-hybrid library CCNG1
T51 chain: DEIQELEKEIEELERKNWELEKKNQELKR

4H730-bH = target: T52, 4H730-bH; test: two-hybrid library CCNG1
T52 chain: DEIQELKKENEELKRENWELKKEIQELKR

4H796-bH = target: T53, 4H796-bH; test: two-hybrid library CCNG1
T53 chain: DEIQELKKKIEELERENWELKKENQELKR

4H932-bH = target: T54, 4H932-bH; test: two-hybrid library CCNG1
T54 chain: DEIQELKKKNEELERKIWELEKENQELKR

4H949-bH = target: T55, 4H949-bH; test: two-hybrid library CCNG1
T55 chain: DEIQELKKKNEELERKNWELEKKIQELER

B3: P8 (peptide)
chain: T29 chain
- interaction score (P8): -2.5
- interaction score (P8mS): -2.75
- interaction score (P9): -1.88

B4: 4H2907-AA (peptide)
chain: DKIAALKAKIAALKAENAALKAENAALEG
- interaction score (4H2907-AA): -0.959
- interaction score (4H3056-AA): -2.08
- interaction score (4H3133-AA): -1.24
- interaction score (4H3162-AA): -1.39
- interaction score (4H32-AA): 2.38
- interaction score (4H3378-AA): -1.66
- interaction score (4H340-AA): 1.31
- interaction score (4H3413-AA): -2.21
- interaction score (4H3588-AA): 1.57
- interaction score (4H3606-AA): 0.48
- interaction score (4H3631-AA): -1.81
- interaction score (4H3697-AA): -1.97
- interaction score (4H3718-AA): -1.65
- interaction score (4H384-AA): 1.15
- interaction score (4H3865-AA): -1.75
- interaction score (4H697-AA): -1.18
- interaction score (4H982-AA): -1.58

The remaining lines, values ahead:

- interaction score (4H3855-bN): 0.124
- interaction score (4H4001-bN): 0.118
- interaction score (4H454-bN): -0.525
- interaction score (4H568-bN): 0.0333
- interaction score (4H607-bN): -0.914
- interaction score (4H687-bN): -1.97
- interaction score (4H717-bN): -0.464
- interaction score (4H72-bN): -0.0369
- interaction score (4H754-bN): -0.585
- interaction score (4H797-bN): -0.544
- interaction score (4H883-bN): -0.0328
- interaction score (4H908-bN): -0.268
- interaction score (4H918-bN): -1.48
- interaction score (4H953-bN): -0.653
- interaction score (4H967-bN): -0.415
B1: 4H3855-bN (peptide)
chain: DKNQQLKQKIQELEQEIQELKWKNQELEQ

- interaction score (APC4100-AA): 0.507
- interaction score (APC4336-AA): -0.916
- interaction score (APC5009-AA): 0.706
- interaction score (APC542-AA): -1.56
- interaction score (APC5531-AA): -0.557
- interaction score (APC6088-AA): -1.46
- interaction score (APC7524-AA): -1.84
- interaction score (APC8401-AA): -1.35
- interaction score (APC8516-AA): -1.71
- interaction score (APC9141-AA): -1.35
- interaction score (APC9182-AA): -1.63
- interaction score (APC9291-AA): -1.29
- interaction score (APC9806-AA): -1.87
B2: APC4100-AA (peptide)
chain: DENAALEAKLAAIKAELAAIEAELAAIEG

- interaction score (4H3381-bH): 1.27
- interaction score (4H349-bH): -1.42
- interaction score (4H56-bH): -1.78
- interaction score (4H730-bH): -1.42
- interaction score (4H796-bH): -1.28
- interaction score (4H932-bH): -0.263
- interaction score (4H949-bH): 0.43
B5: 4H3381-bH (peptide)
chain: DKNQELEKKIEELERKNWELEKKIQELER
